In the RNAGym collection of RNA variant scans (doi:10.1073/pnas.2313332121):
Variants at the floor of the assay were thinned out.

B1: TPR 5TU (parent)
chain: GGAUCUUCUCGAUCUAACAAAAAAGACAAAUCUGCCACAAAGCUUGAGAGCAUCUUCGGAUGCAGAGGCGGCAGCCUUCGGUGGCGCGAUAGCGCCAACGUUCUCAACUAUGACACGCAAAACGCGUGCUCCGUUGAAUGGAGUUUAUCAUG

Variants of: B1
Experiment: polymerase ribozyme fitness, log enrichment relative to wild type (log ratio); higher = more active; in vitro selection for triplet polymerase activity
In short: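 To select mutant libraries of each subunit of a heterodimeric triplet polymerase ribozyme, built by PCR and transcribed, each was annealed with a biotinylated primer, partner subunit and triplets, then incubated frozen at −7 °C. Extended constructs were gel-excised, captured on streptavidin beads and amplified by RT-PCR, in one round carried out in triplicate. Illumina sequencing of input and output libraries kept genotypes with ≥10 input reads and ≥1 read per output. Fitness is the base-2 logarithm of genotype enrichment relative to wild-type enrichment, from inverse-variance-weighted replicate averages.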
In the case of U7G U45A C57U C76A G83A G84A, the “polymerase ribozyme fitness (log ratio)” value is reported as at most -4.2. With U7A C75U G94C A122G U145A the “polymerase ribozyme fitness (log ratio)” value was -3.63. With U6G A12U A28C A40C G94C the “polymerase ribozyme fitness (log ratio)” value was at most -4.2. For C8A A16G G50U G83C U135C G136C, the “polymerase ribozyme fitness (log ratio)” value was at most -4.2. For U7A U33G C79A C116U U144C, the “polymerase ribozyme fitness (log ratio)” value was at most -4.2. In the case of U7A A119G A120C, the “polymerase ribozyme fitness (log ratio)” value is reported as -3.25. In the case of U6G A28U C72U C87A, the “polymerase ribozyme fitness (log ratio)” value is reported as at most -4.2. In the case of U7G A16C, the “polymerase ribozyme fitness (log ratio)” value is reported as -2.38. In the case of U7G A40U A66C G81C A120G U146G, the “polymerase ribozyme fitness (log ratio)” value is reported as at most -4.2. In the case of U7A C18U A91U A97U U102C U144G, the “polymerase ribozyme fitness (log ratio)” value is reported as at most -4.2. For U7A A23C G50U G59A A73C G86U C95G C108U, the “polymerase ribozyme fitness (log ratio)” value was at most -4.2. For U7A U55A C85U C114A G136C, the “polymerase ribozyme fitness (log ratio)” value was at most -4.2. For U7C C57G A98G, the “polymerase ribozyme fitness (log ratio)” value was -3.3. In the case of C8A A26G A37C G62A A120G G140C G152A, the “polymerase ribozyme fitness (log ratio)” value is reported as -4.13. With U6G U7C A20U A39G A40C G42C G59A G92U C93G A115U C116U the “polymerase ribozyme fitness (log ratio)” value was at most -4.2. With U7C C10U U55A G62A G65C U78G C96A the “polymerase ribozyme fitness (log ratio)” value was at most -4.2. For U7A A29U C35U A66C U82G A113U, the “polymerase ribozyme fitness (log ratio)” value was -3.86. In the case of U7G C32U C54G C96U, the “polymerase ribozyme fitness (log ratio)” value is reported as at most -4.2. In the case of U6G C87U C131U, the “polymerase ribozyme fitness (log ratio)” value is reported as 0.928. For U6G A12U A20U C51A C96A G100U C118A U148C, the “polymerase ribozyme fitness (log ratio)” value was at most -4.2. For U7A C43U A49G A110G, the “polymerase ribozyme fitness (log ratio)” value was at most -4.2. For U6G G86U G152U, the “polymerase ribozyme fitness (log ratio)” value was -4.12. For U7A U31G G81C G84U C95U A107G G128U A137G, the “polymerase ribozyme fitness (log ratio)” value was at most -4.2. For U6G A20U C93A C116A U135A, the “polymerase ribozyme fitness (log ratio)” value was -3.29. In the case of U6G U31G U61A C95A G136A, the “polymerase ribozyme fitness (log ratio)” value is reported as -1.38. With C8A A16U A17U A26U G80C C87U U139G U151A the “polymerase ribozyme fitness (log ratio)” value was at most -4.2. In the case of U6G U9C A12C U45A C76G A91C C96G, the “polymerase ribozyme fitness (log ratio)” value is reported as at most -4.2. In the case of U6G A30C C43G A52C C54U U77A C85G A119G U148G, the “polymerase ribozyme fitness (log ratio)” value is reported as at most -4.2. With U7G G11C U33C A64U C96A A122G G124A G140U the “polymerase ribozyme fitness (log ratio)” value was at most -4.2. For C8A A12G, the “polymerase ribozyme fitness (log ratio)” value was -3.98. For U6G C10G C87G, the “polymerase ribozyme fitness (log ratio)” value was at most -4.2. In the case of U6G C87U, the “polymerase ribozyme fitness (log ratio)” value is reported as -0.579. For U6G C87G, the “polymerase ribozyme fitness (log ratio)” value was -3.6. For U7G G74A C103A, the “polymerase ribozyme fitness (log ratio)” value was at most -4.2. For U7C G48C C85U, the “polymerase ribozyme fitness (log ratio)” value was -3.27. With C8A A16C C18G A49C C95U A98G A142U the “polymerase ribozyme fitness (log ratio)” value was at most -4.2. For U7G A60U G83C C85A C105G A137G, the “polymerase ribozyme fitness (log ratio)” value was at most -4.2. With U7C A19C C57G C85U C96U U148A the “polymerase ribozyme fitness (log ratio)” value was at most -4.2. With U7A A16U A20G G48A C57A G58U A64G C87A G92U G126A C129A A137C the “polymerase ribozyme fitness (log ratio)” value was at most -4.2. For U6G A26G A29C A47U C63U G84A G136U G143C U151A, the “polymerase ribozyme fitness (log ratio)” value was at most -4.2. In the case of U7A C35A C87A C93A, the “polymerase ribozyme fitness (log ratio)” value is reported as at most -4.2. For U6G U53A, the “polymerase ribozyme fitness (log ratio)” value was -0.949. In the case of U7C U9G A17U A26G G84A C116A, the “polymerase ribozyme fitness (log ratio)” value is reported as -3.98. With C8A A26G G59U A89G C93G C95U C108U C132A the “polymerase ribozyme fitness (log ratio)” value was at most -4.2. In the case of U7A C76U G94A C105U U151A, the “polymerase ribozyme fitness (log ratio)” value is reported as -3.84. For U6G U13G A16G C85G G86A A142G, the “polymerase ribozyme fitness (log ratio)” value was at most -4.2. With U6C U13C C14U G34A G80C A91G the “polymerase ribozyme fitness (log ratio)” value was at most -4.2. For U7C G50A G84U C87A U151A, the “polymerase ribozyme fitness (log ratio)” value was at most -4.2. For U6C G83C A91C U145C, the “polymerase ribozyme fitness (log ratio)” value was at most -4.2. With U7G A19G the “polymerase ribozyme fitness (log ratio)” value was -2.47. For U7A A28G A40U A49C G50C C87A U144G, the “polymerase ribozyme fitness (log ratio)” value was at most -4.2. With U7A C10A C14U C32G C36A U53G U55G U61A G67C U82G C87G C96U C103G the “polymerase ribozyme fitness (log ratio)” value was at most -4.2. For U6G U78G C93U A98G A142C, the “polymerase ribozyme fitness (log ratio)” value was -3.99. For U7C C76U G84A A119U U145G, the “polymerase ribozyme fitness (log ratio)” value was -3.32. With C8A A22G U56A C57U C85G the “polymerase ribozyme fitness (log ratio)” value was at most -4.2. With U6G A37C C51G G74C A98U C103A C118A G128U U135C U146C G152A the “polymerase ribozyme fitness (log ratio)” value was at most -4.2. With U6C U7G A49G A66C G74A C96G the “polymerase ribozyme fitness (log ratio)” value was at most -4.2. In the case of U7G A12G A52U C57A A73G C93G, the “polymerase ribozyme fitness (log ratio)” value is reported as at most -4.2. For U7G G11A C18A A37G G50A C85U G112U, the “polymerase ribozyme fitness (log ratio)” value was at most -4.2. For U7G C8G U45G A66U C85U A138U, the “polymerase ribozyme fitness (log ratio)” value was at most -4.2. In the case of U6G G59C, the “polymerase ribozyme fitness (log ratio)” value is reported as 0.358. In the case of U7G C95U, the “polymerase ribozyme fitness (log ratio)” value is reported as -2.93. In the case of U7A C8G U13G U90G C95G U134A, the “polymerase ribozyme fitness (log ratio)” value is reported as at most -4.2. In the case of U6G A41C A49G C95G, the “polymerase ribozyme fitness (log ratio)” value is reported as -2.03. For U7G A41U C43U U82G G92U U146A, the “polymerase ribozyme fitness (log ratio)” value was at most -4.2. In the case of U6G G59C C85U G92U U127A, the “polymerase ribozyme fitness (log ratio)” value is reported as at most -4.2. In the case of U7A A121U A138G, the “polymerase ribozyme fitness (log ratio)” value is reported as at most -4.2. In the case of U7C A19U C35U A37G U55G C76G G86A G88U C103G G124A, the “polymerase ribozyme fitness (log ratio)” value is reported as at most -4.2. For U7C A24U G84U C87G A107C G112U G133U, the “polymerase ribozyme fitness (log ratio)” value was at most -4.2. For U7C U56A G94A A98G, the “polymerase ribozyme fitness (log ratio)” value was -3.41. With U7G U15A A41U A66C G94U C99G G133U U148G the “polymerase ribozyme fitness (log ratio)” value was at most -4.2. For U6G A20U A41U U44A U55G G83A G88U A98U A121G U145A, the “polymerase ribozyme fitness (log ratio)” value was at most -4.2. For U6C G94A C105U U127A, the “polymerase ribozyme fitness (log ratio)” value was at most -4.2. With U6G A52C the “polymerase ribozyme fitness (log ratio)” value was -0.94. For U7G G42C U61A C96U G112C G124C G126C G136A, the “polymerase ribozyme fitness (log ratio)” value was at most -4.2. For U7C A20C A49C U77C A91U, the “polymerase ribozyme fitness (log ratio)” value was at most -4.2. In the case of U6G A29G, the “polymerase ribozyme fitness (log ratio)” value is reported as -3.97. For U7G A21G C57G U127G U130G C131U U135G U148A, the “polymerase ribozyme fitness (log ratio)” value was at most -4.2. In the case of U6G A12U A22U A64U G88C C95U, the “polymerase ribozyme fitness (log ratio)” value is reported as at most -4.2. With U6G U55A the “polymerase ribozyme fitness (log ratio)” value was 0.402. With U7G A20C A40C G48U A64U A89U G92U U101C C132A the “polymerase ribozyme fitness (log ratio)” value was at most -4.2. In the case of U7A A17U A19C C38U G58U G86A G92C, the “polymerase ribozyme fitness (log ratio)” value is reported as at most -4.2. With U6G C75G U90A G92U the “polymerase ribozyme fitness (log ratio)” value was at most -4.2.
